# In article PMC3169410 (Acta Crystallographica Section F: Structural Biology and …, 2011):
# B1: BrabA.11339.a, putative β-lactamase-like protein from Brucella melitensis biovar Abortus 2308 (natural protein)
# chain: TSPRNCLRFTLLGCGSSPGVPRINGDWGKCDPKNPKNRRRRASLLVERYDAEGNNTVVVIDTGPDFRMQMIDSGVHMLDAAVYTHPHADHIHGIDDLRTYVVDNGRLMDVYANRLTRNRLYDTFGYCFETPVGSSYPPILSMHDIAPETPFSIEGAGGAIRFEPFSQVHGDIESLGFRIGSVVYCTDVSAFPEQSLQYIKDADVLIIGALQYRPHPSHFSLGEALEWIEKLSPKRAILTHMHVPLDYETVMRETPHHVEPGYDGLRFEVAV
# notes: also called BAB1_1016
# Target: the molecule itself
# Experiment: crystal structure
protein,measurement,value
B1,stoichiometry N,2
